Experiment [1] addresses GDP microtubules (polymerised from porcine brain tubulin with GTP) (porcine) (UniProt P02550). The experiment can be described thus: in vitro MT-binding assay by epifluorescence microscopy.
Experiment [2] concerns the target GMPCPP microtubules (polymerised from porcine brain tubulin with GMPCPP) (porcine) (UniProt P02550). Described as above.

In general, Kd refers to the concentration at which binding is half-saturated. The low end stands for tighter binding, the high end for weaker binding. Turning to “KIF5C monomeric motor domain (K351) (domain or fragment)”, the Kd in experiment [1] turned out to be 930 nM; in experiment [2], 250 nM.

For the origin of these results see publication PMC3144414.
